The text below walks through data of a protein production outcome set (Wang et al. 2014).

The data set in a line: label from the status in PepcDB records.
For “MAQISQLSAVILAGGLARRMNGNEKGLCLLHQQPLISHILARLTPQVCTIYFNINRSFATYQQLYPQLTYYSDKIADFQGPLSGILSGFEKIDSEYLLFVPCDTPFLPKNLVTKLTNSLIMNEATIAYAHDGEQAHPTIALIHRSITPALASYLASGERRLYHFFKTQKSIAVDFSDQKNAFQNFNSLADLEQFSTISATRVDQSRLLGITGYSGTGKTTLLEKLIPILTANGIKVGLIKHSHHNVDIDKNGKDSHRLRTAGANPTIIVCQQRWALMTETPQQAVDFQQLITKFDPESVDLILVEGFKDEQFAKIQLHRQVIKKPLPELDEWTIATATDYPIARPNLLDINQIDKIADFIQQWLNN”, the protein production result is “failed”.

Take “MAQKVEAGGGAGGASWDDGVHDGVRKVHVGQGQDGVSSINVVYAKDSQDVEGGEHGKKTLLGFETFEVDADDYIVAVQVTYDNVFGQDSDIITSITFNTFKGKTSPPYGLETQKKFVLKDKNGGKLVGFHGRAGEALYALGAYFATTTTPVTPAKKLSAIGGDEGTAWDDGAYDGVKKVYVGQGQDGISAVKFEYNKGAENIVGGEHGKPTLLGFEEFEIDYPSEYITAVEGTYDKIFGSDGLIITMLRFKTNKQTSAPFGLEAGTAFELKEEGHKIVGFHGKASELLHQFGVHVMPLTN”: the protein production result was “failed”.

Consider “MAQTDKHYFGTLLAQTSRAWRAELDRRLSHLGLSQARWLVLLHLARHRDSPTQRELAQSVGVEGPTLARLLDGLESQGLVRRLAVAEDRRAKHIVLTPKADVLIADIEAIAASVRNDVLTGIDESEQALCQQVLLRILANLENR”, for which the protein production result is given as “not failed”.

On to “MARGDEGGENMIKIYTLGGYEEVGKNMTAVEYEGEVVIIDMGIRLDRVLIHEDVEFQKMSSKDLRKLGAIPDDRPIRDKKVVAIALSHGHLDHIGAVGKLAPHYPDVPIYGTPYTIRLAKSEIKGEEYFEVTNPLYETNYGEIVQVSENLAIEFVQVTHSIPHSSIVVIHTPEGAVVYACDYKFDNNHPYGEKPDYKRLKELGKEGVKVLIAESTRVAEETKTPSEAVAKMLLEDFFLYEGMEADGLIATTFASHIARLQELIEIANKMGRQAIFIGRSLAKYTGIAKQLGLIKMKGSRVLRSPNAVSKVLKEVSQARENYLLIVTGHQGEPGAILTRMANGELYDIGPRDTVVFSAGVIPNPLNIAQRYALETKLKMRGVRMIKDLHVSGHASKEDHRYLIRMLNPEYIVPAHGEFRMLTHYAELAEEEGYRIGKDVFISRNGHIVEII”, for which the protein production result is listed as “failed”.

“MARNKGWVGATCCFLLFTVVFLSQKIEVSEVAVNDGLRGSPGMLLFLLPGMVACFLSARGRLLYPLFGALAAMPVCLLLLHLWNTPMRSFWQELAYVMSAVFWCVLGAMGVLCLRSLYRRYLR”: the protein production entry was “not failed”.

On to “MARPAKLAKISDLFCCTTCPAIDDTCVAPCEGEAPQPFQLHDIPCPPGLHTNLIEPPDMTQNIYDDPIFFQAYSQMGRSLGGLDAAPEWPALQALLPPMNGLRVLDLGCGYGWFSRWASEHGARQVVGLDVSQKMLATARATTSAPNVQYQQEDLEQLRLPACSFDLAYSSLALHYIKDLPGLFAQVYAALVPGARLVFSIEHPIFMAPRNPGWQVDAQGRQSWPVDSYQQEGERVTDWLAEGVIKQHRTLGTLLNTLIDTGFNLRHVQEWGPTAQQIEDLPALAEERERPMLLLVAAQR”, for which the protein production entry is given as “failed”.

For the sequence “MARPHFALTSVFLASSVSLSAFGFSLPARAQSEDVAQKCQQPIKSVEASFAACTAAIDTGALSGKALAGAYIKRGFLRTRQRDLVGAEADLDAAIKANPDAADAYTTRANFWNVSGKPERALADADQAIKLDPNLPLAHFVRGSAELKLGHDDRAIADYSRAIELRPKESGEVYAVRGFAYHRKGDDIRAVADYTEALKAAPEDVGTLLNRGDARRNLRDTAGAAADYSEAIKLAPGNAGGFKGRGFIRLLTQDTGGAVADFTEAIRLSPSESGLYLNRASALGLQNQSLLALADEDMAIRLEPQHPLAYVNRAETLKLLGDKVAARASVTKALQLAPGFPPAVEVLKKLGEPKRSKEPSSEAAQEAYRRCTFPVTDLGPGEEGIKQIIKVCTLLVTAQGGSDANRALVHLQRGSMYRRQGDYQHALIDFSESLRYDPESALAYTGRGNAYRGLKLLDQALADHTEAIRLDPKYATAYNNRGNVWRDKNDLAKAIADFDRAIAISPNYAMAYFNRGNSRLESGDKEGAVADFQQTVKLSPQFKEAAERLQELGVRM”, the protein production result was “failed”.

With “MARPNFRYTHYDLKELRAGTTLEISLSSVNNVRLMTGANFQRFTELLDFKYLGGVAKKSPIRIAVPETMHWHLIIDAEGHSGLAESSVKMLPAQPQATLTRKAS”, the protein production result is “not failed”.

For “MARRYAIYDVFTERRLAGNPLAVVFEAEGLAEEAMQAIAQEFNLSETVFILRPGNAAHSARLRIFTPAHELPFAGHPTVGAAVAIAEAAYGEANSALELMQVLEESVGPVRAAVRLKPGAATFAEFDLPRKPIRLHAQLDRQEIADALALKTTQVGFENHVPSFWSAGVPFVMIPLRDVGAAASVEFDPQRWEHLAPLAEGRLAAAYLYCRGGINHTARFHARMFAPGMGLAEDPATGSAVAALSGAINFFDGLVDGHHPMLIEQGVEMGRPSFIHLHLDIAEGKIAGARIGGHAVKVAEGELAV”, the protein production entry is reported as “failed”.

Regarding “MARVAIPSVGKDLSSMVSDRFARAEYFIIYDTESGNVEVVENTIADAHGTGPKVVQSLVSKGVEYLIASNVGRNAFETLKAAGVKVYRFEGGTVQEAIDAFSEGRLEELTTFTREG”, the protein production result was “not failed”.

In the case of “MARVARWFLAVETVAFLGAAGVHAGVLWRGHEHARAATAETVIGVVLGLALLAAAARPRWSRRAAIGAQAFALLGTAVGLFTIAIGVGPRTAPDLAFHVAIVATLVVGLLRLARPTAGLREATP”, the protein production entry is on record as “failed”.

With “MARVLVSSPSSFFGSPLIKPSSSLRHSGVGGGGTAQFLPYRSNNNKLFTTSTTVRFSLNEIPPFHGLDSSVDIGAIFTRAESLLYTIADAAVVGADSVVTTDSSAVQKSGGWFGFISDAMELVLKILKDGLSAVHVPYAYGFAIILLTIIVKAATYPLTKQQVESTLAMQNLQPKIKAIQQRYAGNQERIQLETSRLYKQAGVNPLAGCLPTLATIPVWIGLYQALSNVANEGLFTEGFFWIPSLGGPTSIAARQSGSGISWLFPFVDGHPPLGWYDTVAYLVLPVLLIASQYVSMEIMKPPQTDDPAQKNTLLVFKFLPLMIGYFALSVPSGLSIYWLTNNVLSTAQQVYLRKLGGAKPNMDENASKIISAGRAKRSIAQPDDAGERFRQLKEQEKRSKKNKAVAKDTVELVEESQSESEEGSDDEEEEAREGALASSTTSKPLPEVGQRRSKRSKRKRTV”, the protein production result was “failed”.

For “MARVQIDLPDKFIYSTKLQVRIGDVAAGFHMGNHMLISYLNEALLLFFREAGVIGMFGTKMNLIDADLAVIYKTEAAHGDMLRVDLGIIPSGIYGFDAFYRVTNERTGEEIAIAKMAMLFFDYEQRQISPVPEAFTVALPKIYNRAIPSTE”, the protein production result is reported as “failed”.

For “MARVTVMIPTQRRPDGLAVAARSVFGQVGVDFAELELVIVDNDQVPSAKPVADALRKGAPCPVIYVNEKRPGVAFARNAGMARASGDFIAFLDDDEEAPSGWLAALLAAQERYDADVVFGPVKARAPAHIDQHRDYLERFFSRIGPAQAGVIDYHYGCGDSLIRRSALPDPVAPFAVERNFIGGEDDLLFGHMGAAGKRFAWEPAAWVWEDPVPSRLNLGYTIQRAFAYGQGPSAHCAAAEPRDNLGVARWMLIGVGQAAVFGLVAAVKWAVRAKDRAEWLDRAARGLGKTFWWGPFKIQFYGRTA”, the protein production entry is recorded as “failed”.

As to “MASADEKVVEEKASVISSLLDKAKGFFAEKLANIPTPEATVDDVDFKGVTRDGVDYHAKVSVKNPYSQSIPICQISYILKSATRTIASGTIPDPGSLVGSGTTVLDVPVKVAYSIAVSLMKDMCTDWDIDYQLDIGLTFDIPVVGDITIPVSTQGEIKLPSLRDFF”, the protein production entry is on record as “not failed”.

In the case of “MASIQKLGNGWRYRVSYKDAGKYKTKTKGGFRTKKECELAAAELEKKLHVGMDISAGDRLFAEYMRTWFELYQNGKHSPEHDRNIERSVKLVEEHFPGVKMKELTREMYQKFINEISPKYATDTVKKRHTYIKACLQEAIQEGIIFKDPTYKVIIKGKKDTKNEELKYLNFNEVQKLVAETKKDLRPRYISRYVILFAIATGARFSEIMGITWDCVDFKNRTITINKTWDFKDTNDFSDTKNYASKRTITIDTETVDMLQTLKSEQNKKALQTGLRNKKNLVFVNTKMQLVSNNAVNKTLRTLCKAAKIKEITCHGLRHTHASMLLYKGVNIKYISRRLGHKDIVTTLQTYSHILDEMEQVESRVVDDTMKEIHGAKFVQKNF”, the protein production result is “failed”.

Turning to “MASKSGSGGLREPPNEQAVLNMYEGKRSELSQIYSNITDLEMQVSEHSLVINAIQPLDQSRKCFRMIGGVLVERTIKEVLPAVQRNKDGLEEVVRKLYETLEKKKKDLTEFEAKYKIRITKQEDNKEGGNKKEGNAQGVLVGAASSSQ”, the protein production result is on record as “failed”.

In the case of “MASLAAVVRALLRRESQRATGYALREWTMLTARHLPYLQGQLTLGRIAAVGHLQRSTLGRSEWHTSSAPLFGEGRGRWHWGLSTSDVVDGSDHEHHSTETGGRELPSFKTGELGSDVDGDRAALEAWLAQIRDETSGWPELSLDALRDELDEELEGDDDDNDDDDDETYENEELLKALQEAVNRHRTPVVALVSGRVVHLRRTAAPKRSPRAGRVPRNEPQTTSRDTTKADANDNECT”, the protein production entry is “not failed”.

In the case of “MASLIMTTPFPGSVTACKKTNNLSVQRAFKVTCMQTEKPLEELYNVKVERKVSQKRLEELGVSRWSVWKTGKCKLPWDWQVDQLVYIEQGEVRVVPEGSKRYMQFLAGDLVRYPKWLEADLFFNAPYIERYCFKAYGDD”, the protein production entry is reported as “failed”.

Regarding “MASSAVSLQSISMTTLNNLSCNQQFHRSSLLGSSKSFQNLGISSNGSDFSYPSSFTAKKNLTASRALSQNGNIENPRPSKVQELSVYEINELDRHSPKILKNAFSLMFGLGDLVPFTNKLYTGDLKKRVGITAGLCVVIEHVPEKKGERFEATYSFYFGDYGHLSVQGPYLTYEDSFLAITGGAGIFEGAYGQVKLQQLVYPTKLFYTFYLKGLANDLPLELTGTPVPPSKDIEPAPEAKALEPSGVISNYTN”, the protein production entry is “not failed”.

Regarding “MASSKQADPQTDARPLPQDFETALAELESLVSAMENGTLPLEQSLSAYRRGVELARVCQDRLAQAEQQVKVLEGDLLRPLDPAALDDE”, the protein production entry is on record as “not failed”.

As to “MASSVILREDGFAPPKPSPTTHEKASTKGDRDGVECKNSDSEEECLVKKTVAAHTDYIYTQDLNLSP”, the protein production entry was “failed”.

For “MASTNQELASALRMFSRFFDLIHQPLAVINERGEYVYYNQESADLDGYSIERAMGKHMLDVYPGMKETQSTMLSSLKKGVEYIGHYQIYYNARGQAVDYQHTTAPLYASDGGMVGVIEIGRNMSGVRRLQEQVVELNQLLYADHHEKHHAIITENPEMLSNIAKAKRLAASNIPVTIVGETGTGKELFSRLIHQCSKRANKPFIALNCGALPPTLIESTLFGTVRGAYTGAENSQGYLELANGGTLFLDELNAMPIEMQSKLLRFLQDKTFWRLGGQQQLHSDVRIVAAMNEAPVKLIQQERLRADLFYRLSVGMLTLPPLRARPEDIPLLANYFIDKYRNDVPQDIHGLSETARADLLNHAWPGNVRMLENAIVRSMIMQEKDGLLKHIIFEQDELNLGVPETAPENPLPSSPDPQYEGSLEVRVANYERHLIETALDTHQGNIAAAARSLNVSRTTLQYKVQKYAIRFGVVRN”, the protein production entry was “failed”.

Regarding “MASWLVLCRFVHFAVVLTLVGAWVFRPLLLGRDSAQSGHGAVHRQLDRLSRWLTLIGLGSGLCWLLLITASMAGSWSAALDPATVQLVLGKTFFGQVWTWHLLLNLLLLGLLLTPLGRRLPLQLGLGALLLATLAPVGHGAMLDGLAGQLLILNQVVHLSCVGIWLGGLLVLLLVLRQPPQASVEPLLRRFSGVGYGLVAGLLASGLINVRVLTGQWWPTPLFSGFALILLIKVLLVAGMLALALFNRLRIRGCDQRLASLRNSVQLEWLLGVAAVAAVSLLGTLPPMQVI”, the protein production entry is recorded as “failed”.
